Consider 2 molecules from US20060239966A1.

For assay [1], the target named is GFRα2/Fc fusion protein (R&D Systems). Kind of assay: GFRα2 ELISA: GFRα2/Fc on anti-human Fc plate, Ret-AP detection; conditioned medium of transfected CHO cells. In general terms: An ELISA detects its analyte on a solid surface through an enzyme-linked reagent.
Assay [2] shares this target. Kind of assay: GFRα2 ELISA: GFRα2/Fc on anti-human Fc plate, Ret-AP detection; conditioned medium of transfected ARPE-19 cells.
Assay [3] has the same target. Put plainly: GFRα2 ELISA: GFRα2/Fc on anti-human Fc plate, Ret-AP detection; conditioned medium of transfected HEK293 cells.
For assay [4] the target is unchanged. Kind of assay: GFRα2 ELISA: GFRα2/Fc on anti-human Fc plate, Ret-AP detection; conditioned medium of transfected HiB5 cells.

B1: Neurturin secreted from cells transfected with the dpro-NTN construct (wt NTN signal peptide fused to human mature NTN, no pro-region) (ligand)
chain: ARLGARPCGLRELEVRVSELGLGYASDETVLFRYCAGACEAAARVYDLGLRRLRQRRRLRRERVRAQPCCRPTAYEDEVSFLDAHSRYHTVHELSARECACV
For the molecule B1, the fold higher GFRα2 binding activity of conditioned medium (wt construct set to 1) in assay [1] worked out at 4.1 fold; in assay [2] it was 117 fold; in assay [3] it was 90 fold; in assay [4] it was 7.5 fold.

B2: Neurturin secreted from cells transfected with the IgSP-NTN construct (mouse immunoglobulin heavy chain signal peptide fused to human mature NTN) (ligand)
chain: ARLGARPCGLRELEVRVSELGLGYASDETVLFRYCAGACEAAARVYDLGLRRLRQRRRLRRERVRAQPCCRPTAYEDEVSFLDAHSRYHTVHELSARECACV
For the molecule B2, the fold higher GFRα2 binding activity of conditioned medium (wt construct set to 1) in assay [1] is 66 fold; in assay [2] it was 771 fold; in assay [3], 278 fold; in assay [4], 162 fold.
